We go through 2 molecules from US20230348558A1 (published 2023).

The target in assay [1] is T1, HPV16-E2 peptide on HLA-A*02:01 (human).
T1 peptide: TLQDVSLEVYL
Kind of assay: killing.

Assay [2] addresses T2, HPV16-E5 peptide on HLA-C*05:01 (human).
T2 peptide: NLDTASTTL
The assay can be described thus: cytokine release.

The target in assay [3] is T3, HPV16-E5 peptide on HLA-C*08:02 (human).
T3 peptide: NLDTASTTL
Kind of assay: cytokine release.

B1: E2-TLQ-TCR (TCR, V domains shown)
Valpha: AQTVTQSQPEMSVQEAETVTLSCTYDTSESNYYLFWYKQPPSRQMILVIRQEAYKQQNATENRFSVNFQKAAKSFSLKISDSQLGDTAMYFCAFTYGGSQGNLIFGKGTKLSVKP
Vbeta: EPEVTQTPSHQVTQMGQEVILRCVPISNHLYFYWYRQILGQKVEFLVSFYNNEISEKSEIFDDQFSVERPDGSNFTLKIRSTKLEDSAMYFCASRASVGVGTGELFFGEGSRLTVL
Regarding B1, the binding result in assay [1] is listed as “recognises”.

B2: E5-NLD-TCR (TCR, V domains shown)
Valpha: AQKVTQAQTEISVVEKEDVTLDCVYETRDTTYYLFWYKQPPSGELVFLIRRNSFDEQNEISGRYSWNFQKSTSSFNFTITASQVVDSAVYFCALSEGGGSQGNLIFGKGTKLSVKP
Vbeta: GVSQSPRYKVTKRGQDVALRCDPISGHVSLYWYRQALGQGPEFLTYFNYEAQQDKSGLPNDRFSAERPEGSISTLTIQRTEQRDSAMYRCASSPELAGPQETQYFGPGTRLLVL
As to B2, the binding result in assay [2] and in assay [3] was “recognises” in each case.
